Conditions in all cases: remark: other sources report otherwise
The target in experiment [1] is T1, human XLF (1–233) with N-terminal His6 tag (XLF410) (human), Q9H9Q4.
T1 chain: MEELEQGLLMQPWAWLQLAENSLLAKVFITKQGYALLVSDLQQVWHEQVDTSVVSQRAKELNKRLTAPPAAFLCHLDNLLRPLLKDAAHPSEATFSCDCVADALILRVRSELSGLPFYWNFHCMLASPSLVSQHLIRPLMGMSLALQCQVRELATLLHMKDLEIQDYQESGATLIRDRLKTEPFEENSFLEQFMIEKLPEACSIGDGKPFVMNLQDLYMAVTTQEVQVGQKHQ
As to the kind of experiment: cross-linking.

Experiment [2] concerns the target T2, SeMet-substituted human XLF (1–233) (SeMet-XLF441, cleaved) (human), Q9H9Q4.
T2 chain: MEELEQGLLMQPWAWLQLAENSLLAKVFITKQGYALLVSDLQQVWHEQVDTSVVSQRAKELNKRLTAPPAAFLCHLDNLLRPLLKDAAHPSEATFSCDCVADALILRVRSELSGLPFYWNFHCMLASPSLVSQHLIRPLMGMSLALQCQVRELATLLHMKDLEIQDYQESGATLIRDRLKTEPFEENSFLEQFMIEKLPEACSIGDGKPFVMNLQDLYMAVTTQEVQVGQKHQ
The experiment is described as follows: crystal structure.

Experiment [3] deals with T3, human XLF/Cernunnos (1–233), tag-free (cleaved XLF441) (human), Q9H9Q4.
T3 chain: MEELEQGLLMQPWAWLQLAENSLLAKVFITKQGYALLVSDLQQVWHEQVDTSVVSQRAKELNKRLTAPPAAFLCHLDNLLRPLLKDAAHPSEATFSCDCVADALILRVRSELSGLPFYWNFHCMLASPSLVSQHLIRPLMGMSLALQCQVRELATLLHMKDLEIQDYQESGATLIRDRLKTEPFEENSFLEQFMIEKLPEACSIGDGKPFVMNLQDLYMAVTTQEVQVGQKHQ
As to the kind of experiment: dynamic light scattering.

B1: human XLF (1–233) with N-terminal His6 tag (XLF410), Q9H9Q4 1-233 (domain or fragment)
chain: MEELEQGLLMQPWAWLQLAENSLLAKVFITKQGYALLVSDLQQVWHEQVDTSVVSQRAKELNKRLTAPPAAFLCHLDNLLRPLLKDAAHPSEATFSCDCVADALILRVRSELSGLPFYWNFHCMLASPSLVSQHLIRPLMGMSLALQCQVRELATLLHMKDLEIQDYQESGATLIRDRLKTEPFEENSFLEQFMIEKLPEACSIGDGKPFVMNLQDLYMAVTTQEVQVGQKHQ
For B1, the stoichiometry N in experiment [1] turned out to be 2.

B2: SeMet-substituted human XLF (1–233) (SeMet-XLF441, cleaved), Q9H9Q4 1-233 (domain or fragment)
chain: MEELEQGLLMQPWAWLQLAENSLLAKVFITKQGYALLVSDLQQVWHEQVDTSVVSQRAKELNKRLTAPPAAFLCHLDNLLRPLLKDAAHPSEATFSCDCVADALILRVRSELSGLPFYWNFHCMLASPSLVSQHLIRPLMGMSLALQCQVRELATLLHMKDLEIQDYQESGATLIRDRLKTEPFEENSFLEQFMIEKLPEACSIGDGKPFVMNLQDLYMAVTTQEVQVGQKHQ
modifications: here or on the partner: selenomethionine-substituted (SeMet in place of methionine); selenomethionine-substituted (SeMet in place of methionine)
In the case of B2, the stoichiometry N in experiment [2] turned out to be 2.

B3: human XLF/Cernunnos (1–233), tag-free (cleaved XLF441), Q9H9Q4 1-233 (domain or fragment)
chain: MEELEQGLLMQPWAWLQLAENSLLAKVFITKQGYALLVSDLQQVWHEQVDTSVVSQRAKELNKRLTAPPAAFLCHLDNLLRPLLKDAAHPSEATFSCDCVADALILRVRSELSGLPFYWNFHCMLASPSLVSQHLIRPLMGMSLALQCQVRELATLLHMKDLEIQDYQESGATLIRDRLKTEPFEENSFLEQFMIEKLPEACSIGDGKPFVMNLQDLYMAVTTQEVQVGQKHQ
Take B3: the stoichiometry N in experiment [3] is 2.

(Values after PMC2104711.)
